According to patent US20210403591A1 (OSSIANIX, published 2021):

How the values were obtained:
Test in all cases: FACS, transfected Expi293 cells
[1] = target: T1, mTfR-1 N277A on Expi293 cells (mouse, UniProt Q62351 1-763)
T1 construct: whole, on cells
Protocol: (§1) Transfected Expi293 cells were harvested and 2×10⁵ cells were transferred into V-bottom 96-well plate for staining. The cells were blocked in PBS containing 1% BSA (FACS buffer) for 10 min on ice, centrifuged to remove the buffer and 1 μl of 8D3-hFc formatted antibody, Clone C-hFc or Clone C variants 18 and 13 (Table 1), all at 1 mg/ml, was added to the wells. The cells were co-stained with mouse Tf-Alexa647 (Jackson ImmunoResearch). After 30 minutes on ice, the cells were washed and incubated with anti-hFc-PE (eBioscience) for 20 minutes on ice, washed again and resuspended in […] of FACS buffer containing 5 μl of propidium iodide (PI) to exclude dead cells from the analysis. The percentage of double-positive cells that stained with mTf and the tested antibody was determined on a CytoFlex cytometer (Beckman Coulter). The percentage of cells in the double positive quadrant (Q2) for WT mTfR-1 was used for normalization.

[2] = target: T2, mTfR-1 V194A on Expi293 cells (mouse, UniProt Q62351 1-763)
T2 construct: whole, on cells
T2 sequence (Q62351 whole entry V194A): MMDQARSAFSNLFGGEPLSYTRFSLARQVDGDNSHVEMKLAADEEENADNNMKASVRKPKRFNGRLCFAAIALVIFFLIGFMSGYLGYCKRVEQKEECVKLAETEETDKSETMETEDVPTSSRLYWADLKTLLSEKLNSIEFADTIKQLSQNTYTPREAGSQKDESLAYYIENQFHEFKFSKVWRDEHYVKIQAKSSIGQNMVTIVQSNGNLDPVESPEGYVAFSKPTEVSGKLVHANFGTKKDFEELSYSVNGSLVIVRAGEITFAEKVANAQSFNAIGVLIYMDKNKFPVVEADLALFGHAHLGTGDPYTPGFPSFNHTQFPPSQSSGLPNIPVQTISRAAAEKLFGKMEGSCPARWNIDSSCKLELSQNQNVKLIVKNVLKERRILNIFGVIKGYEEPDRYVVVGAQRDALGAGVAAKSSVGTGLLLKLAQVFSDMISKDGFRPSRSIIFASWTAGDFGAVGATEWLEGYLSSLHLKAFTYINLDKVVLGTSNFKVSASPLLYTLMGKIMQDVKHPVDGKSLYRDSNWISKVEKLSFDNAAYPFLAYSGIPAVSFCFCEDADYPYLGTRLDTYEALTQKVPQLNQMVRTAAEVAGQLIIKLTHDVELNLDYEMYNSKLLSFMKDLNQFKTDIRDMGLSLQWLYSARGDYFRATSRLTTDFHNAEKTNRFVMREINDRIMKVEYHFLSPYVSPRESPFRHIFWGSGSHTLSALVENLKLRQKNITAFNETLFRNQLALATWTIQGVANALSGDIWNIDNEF
Protocol: as §1

[3] = target: T3, mTfR-1 Q200A on Expi293 cells (mouse, UniProt Q62351 1-763)
T3 construct: whole, on cells
T3 sequence (Q62351 whole entry Q200A): as the sequence (Q62351 whole entry V194A) above, with A194V, Q200A counted along it
Protocol: as §1

[4] = target: T4, mTfR-1 K195A on Expi293 cells (mouse, UniProt Q62351 1-763)
T4 construct: whole, on cells
T4 sequence (Q62351 whole entry K195A): as the sequence (Q62351 whole entry V194A) above, with A194V, K195A counted along it
Protocol: as §1

[5] = target: T5, mTfR-1 V382A on Expi293 cells (mouse, UniProt Q62351 1-763)
T5 construct: whole, on cells
T5 sequence (Q62351 whole entry V382A): as the sequence (Q62351 whole entry V194A) above, with A194V, V382A counted along it
Protocol: as §1

[6] = target: T6, mTfR-1 G330A on Expi293 cells (mouse, UniProt Q62351 1-763)
T6 construct: whole, on cells
T6 sequence (Q62351 whole entry G330A): as the sequence (Q62351 whole entry V194A) above, with A194V, G330A counted along it
Protocol: as §1

[7] = target: T7, mTfR-1 S329A on Expi293 cells (mouse, UniProt Q62351 1-763)
T7 construct: whole, on cells
T7 sequence (Q62351 whole entry S329A): as the sequence (Q62351 whole entry V194A) above, with A194V, S329A counted along it
Protocol: as §1

[8] = target: T8, mTfR-1 G254A on Expi293 cells (mouse, UniProt Q62351 1-763)
T8 construct: whole, on cells
T8 sequence (Q62351 whole entry G254A): as the sequence (Q62351 whole entry V194A) above, with A194V, G254A counted along it
Protocol: as §1

[9] = target: T9, mTfR-1 K380A on Expi293 cells (mouse, UniProt Q62351 1-763)
T9 construct: whole, on cells
T9 sequence (Q62351 whole entry K380A): as the sequence (Q62351 whole entry V194A) above, with A194V, K380A counted along it
Protocol: as §1

[10] = target: T10, mTfR-1 Q193A on Expi293 cells (mouse, UniProt Q62351 1-763)
T10 construct: whole, on cells
T10 sequence (Q62351 whole entry Q193A): as the sequence (Q62351 whole entry V194A) above, with Q193A, A194V counted along it
Protocol: as §1

[11] = target: T11, WT mTfR-1 expressed on Expi293 cells (mouse, UniProt Q62351 1-763)
T11 construct: whole, on cells
T11 sequence (Q62351 whole entry): as the sequence (Q62351 whole entry V194A) above, with A194V counted along it
Protocol: as §1

[12] = target: T12, mTfR-1 Q274A on Expi293 cells (mouse, UniProt Q62351 1-763)
T12 construct: whole, on cells
T12 sequence (Q62351 whole entry Q274A): as the sequence (Q62351 whole entry V194A) above, with A194V, Q274A counted along it
Protocol: as §1

[13] = target: T13, mTfR-1 S255A on Expi293 cells (mouse, UniProt Q62351 1-763)
T13 construct: whole, on cells
T13 sequence (Q62351 whole entry S255A): as the sequence (Q62351 whole entry V194A) above, with A194V, S255A counted along it
Protocol: as §1

[14] = target: T14, mTfR-1 P227A on Expi293 cells (mouse, UniProt Q62351 1-763)
T14 construct: whole, on cells
T14 sequence (Q62351 whole entry P227A): as the sequence (Q62351 whole entry V194A) above, with A194V, P227A counted along it
Protocol: as §1

[15] = target: T15, mTfR-1 G199A on Expi293 cells (mouse, UniProt Q62351 1-763)
T15 construct: whole, on cells
T15 sequence (Q62351 whole entry G199A): as the sequence (Q62351 whole entry V194A) above, with A194V, G199A counted along it
Protocol: as §1

[16] = target: T16, mTfR-1 N253A on Expi293 cells (mouse, UniProt Q62351 1-763)
T16 construct: whole, on cells
T16 sequence (Q62351 whole entry N253A): as the sequence (Q62351 whole entry V194A) above, with A194V, N253A counted along it
Protocol: as §1

[17] = target: T17, mTfR-1 P325A on Expi293 cells (mouse, UniProt Q62351 1-763)
T17 construct: whole, on cells
T17 sequence (Q62351 whole entry P325A): as the sequence (Q62351 whole entry V194A) above, with A194V, P325A counted along it
Protocol: as §1

[18] = target: T18, mTfR-1 K384A on Expi293 cells (mouse, UniProt Q62351 1-763)
T18 construct: whole, on cells
T18 sequence (Q62351 whole entry K384A): as the sequence (Q62351 whole entry V194A) above, with A194V, K384A counted along it
Protocol: as §1

[19] = target: T19, mTfR-1 N333A on Expi293 cells (mouse, UniProt Q62351 1-763)
T19 construct: whole, on cells
T19 sequence (Q62351 whole entry N333A): as the sequence (Q62351 whole entry V194A) above, with A194V, N333A counted along it
Protocol: as §1

[20] = target: T20, mTfR-1 P335A on Expi293 cells (mouse, UniProt Q62351 1-763)
T20 construct: whole, on cells
T20 sequence (Q62351 whole entry P335A): as the sequence (Q62351 whole entry V194A) above, with A194V, P335A counted along it
Protocol: as §1

[21] = target: T21, mTfR-1 E229A on Expi293 cells (mouse, UniProt Q62351 1-763)
T21 construct: whole, on cells
T21 sequence (Q62351 whole entry E229A): as the sequence (Q62351 whole entry V194A) above, with A194V, E229A counted along it
Protocol: as §1

[22] = target: T22, mTfR-1 S275A on Expi293 cells (mouse, UniProt Q62351 1-763)
T22 construct: whole, on cells
T22 sequence (Q62351 whole entry S275A): as the sequence (Q62351 whole entry V194A) above, with A194V, S275A counted along it
Protocol: as §1

[23] = target: T23, mTfR-1 I378A on Expi293 cells (mouse, UniProt Q62351 1-763)
T23 construct: whole, on cells
T23 sequence (Q62351 whole entry I378A): as the sequence (Q62351 whole entry V194A) above, with A194V, I378A counted along it
Protocol: as §1

[24] = target: T24, mTfR-1 Q327A on Expi293 cells (mouse, UniProt Q62351 1-763)
T24 construct: whole, on cells
T24 sequence (Q62351 whole entry Q327A): as the sequence (Q62351 whole entry V194A) above, with A194V, Q327A counted along it
Protocol: as §1

[25] = target: T25, mTfR-1 K226A on Expi293 cells (mouse, UniProt Q62351 1-763)
T25 construct: whole, on cells
T25 sequence (Q62351 whole entry K226A): as the sequence (Q62351 whole entry V194A) above, with A194V, K226A counted along it
Protocol: as §1

[26] = target: T26, mTfR-1 K191A on Expi293 cells (mouse, UniProt Q62351 1-763)
T26 construct: whole, on cells
T26 sequence (Q62351 whole entry K191A): as the sequence (Q62351 whole entry V194A) above, with K191A, A194V counted along it
Protocol: as §1

[27] = target: T27, mTfR-1 L383A on Expi293 cells (mouse, UniProt Q62351 1-763)
T27 construct: whole, on cells
T27 sequence (Q62351 whole entry L383A): as the sequence (Q62351 whole entry V194A) above, with A194V, L383A counted along it
Protocol: as §1

[28] = target: T28, mTfR-1 S231A on Expi293 cells (mouse, UniProt Q62351 1-763)
T28 construct: whole, on cells
T28 sequence (Q62351 whole entry S231A): as the sequence (Q62351 whole entry V194A) above, with A194V, S231A counted along it
Protocol: as §1

[29] = target: T29, mTfR-1 S196A on Expi293 cells (mouse, UniProt Q62351 1-763)
T29 construct: whole, on cells
T29 sequence (Q62351 whole entry S196A): as the sequence (Q62351 whole entry V194A) above, with A194V, S196A counted along it
Protocol: as §1

T1 sequence (Q62351 whole entry N277A): as the sequence (Q62351 whole entry V194A) above, with A194V, N277A counted along it

| Binder | % double-positive cells vs WT [1] [%] | % double-positive cells vs WT [3] [%] | % double-positive cells vs WT [5] [%] | % double-positive cells vs WT [6] [%] | % double-positive cells vs WT [7] [%] | % double-positive cells vs WT [8] [%] | % double-positive cells vs WT [9] [%] | % double-positive cells vs WT [11] [%] | % double-positive cells vs WT [12] [%] | % double-positive cells vs WT [14] [%] | % double-positive cells vs WT [15] [%] | % double-positive cells vs WT [17] [%] | % double-positive cells vs WT [18] [%] | % double-positive cells vs WT [19] [%] | % double-positive cells vs WT [20] [%] | % double-positive cells vs WT [21] [%] | % double-positive cells vs WT [22] [%] | % double-positive cells vs WT [23] [%] | % double-positive cells vs WT [24] [%] | % double-positive cells vs WT [25] [%] | other results |
| --- | --- | --- | --- | --- | --- | --- | --- | --- | --- | --- | --- | --- | --- | --- | --- | --- | --- | --- | --- | --- | --- |
| 8D3 antibody (anti-mouse TfR-1 control; 8D3-hFc formatted antibody) (antibody, V domains shown) VH: EVQLVESGGGLVQPGNSLTLSCVASGFTFSNYGMHWIRQAPKKGLEWIAMIYYDSSKMNYADTVKGRFTISRDNSKNTLYLEMNSLRSEDTAMYYCAVPTSHYVVDVWGQGVSVTVSS VL: DIQMTQSPASLSASLEEIVTITCQASQDIGNWLAWYQQKPGKSPQLLIYGATSLADGVPSRFSGSRSGTQFSLKISRVQVEDIGIYYCLQAYNTPWTFGGGTKLELK | 56 | 66 | 82 | 90 | 18 | 58 | 66 | 100 | 87 | 63 | 69 | 119 | 35 | 90 | 94 | 68 | 70 | 92 | 124 | 111 | % double-positive cells vs WT [2]: 60%; % double-positive cells vs WT [4]: 63%; % double-positive cells vs WT [10]: 63%; % double-positive cells vs WT [13]: 56%; % double-positive cells vs WT [16]: 87%; % double-positive cells vs WT [26]: 91%; % double-positive cells vs WT [27]: 73%; % double-positive cells vs WT [28]: 65%; % double-positive cells vs WT [29]: 74% |
| Clone C VNAR-hFc fusion (Fc fusion, not shown: a dimerising Fc or GST, bivalent VNAR-Fc; also called Clone C-hFc) ARVDQTPQTITKETGESLTINCVLRDSNCALSSTYWYRKKSGSTNEENISKGGRYVETVNSGSKSFSLRINDLTVEDSGTYRCNVVQYPSYNNYFWCDVYGDGTAVTVN | 137 | 90 | 357 | 307 | 212 | 35 | 193 | 100 | 182 | 77 | 72 | 148 | 187 | 213 | 169 | 81 | 97 | 142 | 83 | 157 | % double-positive cells vs WT [2]: 184%; % double-positive cells vs WT [4]: 236%; % double-positive cells vs WT [10]: 152%; % double-positive cells vs WT [13]: 14%; % double-positive cells vs WT [16]: 26%; % double-positive cells vs WT [26]: 51%; % double-positive cells vs WT [27]: 328%; % double-positive cells vs WT [28]: 283%; % double-positive cells vs WT [29]: 123% |

The next lines start with results.

| % double-positive cells vs WT [1] [%] | % double-positive cells vs WT [3] [%] | % double-positive cells vs WT [5] [%] | % double-positive cells vs WT [6] [%] | % double-positive cells vs WT [7] [%] | % double-positive cells vs WT [8] [%] | % double-positive cells vs WT [9] [%] | % double-positive cells vs WT [11] [%] | % double-positive cells vs WT [12] [%] | % double-positive cells vs WT [14] [%] | % double-positive cells vs WT [15] [%] | % double-positive cells vs WT [17] [%] | % double-positive cells vs WT [18] [%] | % double-positive cells vs WT [19] [%] | % double-positive cells vs WT [20] [%] | % double-positive cells vs WT [21] [%] | % double-positive cells vs WT [22] [%] | % double-positive cells vs WT [23] [%] | % double-positive cells vs WT [24] [%] | % double-positive cells vs WT [25] [%] | Binder | other results |
| --- | --- | --- | --- | --- | --- | --- | --- | --- | --- | --- | --- | --- | --- | --- | --- | --- | --- | --- | --- | --- | --- |
| 155 | 171 | 241 | 231 | 182 | 32 | 162 | 100 | 229 | 20 | 42 | 175 | 147 | 161 | 138 | 51 | 136 | 80 | 119 | 91 | Clone C variant 18 VNAR-hFc (Fc fusion, not shown: a dimerising Fc or GST, also called Clone C v18; Clone C var; 18) ARVDQTPQTITKETGESLTINCVLRDSNCALSSTYWYRKKSGSTNEENISKGGRYVETVNSGSKSFSLRINDLTVEDSGTYRCNVVQYPQYPNYFWCDVYGDGTAVTVN | % double-positive cells vs WT [2]: 199%; % double-positive cells vs WT [4]: 150%; % double-positive cells vs WT [10]: 178%; % double-positive cells vs WT [13]: 23%; % double-positive cells vs WT [16]: 10%; % double-positive cells vs WT [26]: 25%; % double-positive cells vs WT [27]: 354%; % double-positive cells vs WT [28]: 173%; % double-positive cells vs WT [29]: 104% |
| 84 | 72 | 111 | 87 | 73 | 22 | 81 | 100 | 84 | 47 | 36 | 83 | 85 | 94 | 75 | 43 | 54 | 115 | 85 | 77 | Clone C variant 13 VNAR-hFc (Fc fusion, not shown: a dimerising Fc or GST, also called Clone C v13; Clone C var; 13) ARVDQTPQTITKETGESLTINCVLRDSNCALSSTYWYRKKSGSTNEENISKGGRYVETVNSGSKSFSLRINDLTVEDSGTYRCNVVQYPQQDNYFWCDVYGDGTAVTVN | % double-positive cells vs WT [27]: 121%; % double-positive cells vs WT [28]: 101%; % double-positive cells vs WT [29]: 47% |
